# Where a chain is given by its changes, count along the chain named.
# B1: XGv285 (antibody, V domains shown)
# VH: QVQLVQSGAEVKKPGASMKVSCKASGYTFISYYMHWVRQAPGQELEWMGIINPSGGSTSYAQKFQGRVTMTRDTSTSTVYMELRSLRSEDTAVYYCARAEGSSWLGWFDPWGQGTLVTVSS
# VL: QSVLTQPPSASGTPGQRVTISCSGSSSNIGSNLVYWYQHLPGTAPKLLIYKNTQRPSGVPDRFSGSKSGTSASLAISGLRSDDEGDYYCAAWDDGLSGSGWVFGGGTKVT
# B2: XGv286 (antibody, V domains shown)
# VH: QVQLVQSGAEVKKPGASVKVSCKASGYTFSSYYIHWVRQAPGQGPEWMAIINPGDGGASYAQKFQGRVTLTRDTSTSTLYMELSSLRSEDTAVYYCARAEGSSWLGWFDPWGQGTLVTVSS
# VL: B1 VL with L33Y, H39Q, K51R, T53N, K67R, D82E, G85A, V109L
# B3: XGv290 (antibody, V domains shown)
# VH: B1 VH with M18V, I30K, S31N, Y33H, E44G, S57G, T58S, R72G, R84S
# VL: B1 VL with L33Y, H39Q, L47V, K51R, T53N, D82E, G85A, D86E, V102L, V109L
# B4: XGv294 (antibody, V domains shown)
# VH: QVQLVQSGAEVKKPGASVKVSCKASGYTFTRHYIHWVRQAPGQGLEWMGIINPSGGGASYAQKFQGRVTMTRDTSTSTVYMEVSSLRYEDTAVYYCARAEGGSWLGWFDPWGQGTLVTVSS
# VL: B1 VL with S25G, S31N, L33Y, H39Q, K51G, T53N, D82E, G85A, Y88H, V109L
# B5: XGv420 (antibody, V domains shown)
# VH: QVQLQESGPGLVKPSGTLSLTCAVSGGSINSNNWWSWVRQPPGKGLEWIGEIYHNGNTNYNPSLKSRVTISVDTSKNQFSLRLSSVTAADTAVYYCARGDSLDWFDPWGQGTLVTVSS
# VL: QSALTQPASVSGSPGQSITISCTGTSSDVGSYNYVSWYQQLPGKAPKLMIYDVSNRPSGVSNRFSGSKSGNTASLTISGLQAEDEADYYCSSYTSSSTLVFGTGTKVTVL
# B6: XGv293 (antibody, V domains shown)
# VH: QVQLVQSGAEVKKPGASVKVSCKASGYTFTSYFLHWVRQAPGQGLEWLGIIDPSGGASYAQKFQGRVTMTSDTSTSTVYMDLGSLRSEDTAVYYCARAEGTSWLGWFDPWGQGSLVTVSS
# VL: QSVLTQPPSASGTPGQRVTISCSGSSSNIGTNYVYWYQQLPGTAPKLLIYRNYQRPSGVPDRFSGSKSGTSASLAISGLRSEDEAEYYCAAWDNGLSGSGWVFGGGTKLTVL
# B7: XGv295 (antibody, V domains shown)
# VH: QVQLVQSGAEVKKPGASVKVSCKASGYIFTNYYIHWVRQAPGQGLEWMAIFNPSAATASYAQKFQGRVTMTRDTSTTTVYMELRSLRFDDTAVYYCARAEGTSWLGWFDPWGQGTLVTVSS
# VL: B6 VL with I20V, T31S, N32H, Y33D, R51K, Y53D, K67T, E86D, N94D
# B8: XGv297 (antibody, V domains shown)
# VH: QVQLVQSGAEVKKPGASVKVSCRTSGYTFTAYYIHWVRQVPGQGLEWMGIINPSGGGASYAQTFQGRVSLTRDTSTRTVYMDLSSLISEDTAVYYCARAEGTHWLGWFDPWGQGTLVTVSS
# VL: B6 VL with G30A, T31S, Y33S, Y53N, K67T, E86D, N94D, G95N
# B9: XGv345 (antibody, V domains shown)
# VH: QVQLQESGPGLVKPSQTLSLTCTVSGGSIRSGSYYWSWIRQPAGKGLEWIGRVYTSGSTNYNPSLKTRVTISLETSKNHFSLKLSSVTAADTAVYYCARGEWEEDFALWGRGTLVTVSS
# VL: DIQMTQSPSSLSASVGDRVTITCRASQSIASHLNWYQQKPGKAPKLLIYGASTLQSGVPSRFSGSGSGTAFTLTISSVQPEDFATYYCQQSYSAITFGQGTRLEIK
# B10: XGv387 (antibody, V domains shown)
# VH: EVQLVESGGGLIQPGGSLRLSCAASGVIVSSNYMSWVRQAPGKGLEWVSVMYSGGSTFYADSVKGRFTISRDNSKNTLYLQMNRLRAEDTAVYFCARGDGGSYLGGAFDIWGQGTMVTVSS
# VL: DIQMTQSPSSLSASVGDRVTLTCRASQSISTYLNWYQQKPGKAPKLLIYAASSLQSGVPSRFSGSGSGTDFTLTINSLQPEDFATYYCQQSYSLPALTFGGGTKVEIK
# B11: XGv338 (antibody, V domains shown)
# VH: EVQLVESGGGLVQPGGSLRLSCAASGFPFITYWMSWVRQTPGKGLEWVANIKEDGSEKNYVDSVKGRFTVSRDNAENSLYLRMNSLRIEDTAVYYCAREIRRTIPTSGMDVWGQGTTVTVSS
# VL: SYELTQPPSVSVSPGQTARITCTGDALPKQYAYWYQQKPGQAPVLIISKDNERASGIPERISGSRSGTTVTLTISGVQAEDEADYYCQSADSSASYSYVFGTGTKVTVL
# B12: XGv287 (antibody, V domains shown)
# VH: QVQLVQSGAEVKKPGASVKVSCKTSGYTFTTYYMHWVRQAPGQGLEWMGIINPSDGSTNYAQKFQDRVTLTKDTSTSTFYMELSSLTSEDTAKYYCARAEGSSWLGWFDPWGQGTLVTVSS
# VL: QSVLTQPPSASGTPGQRVTISCSGSNSNIGNHFVYWYQQLPGKAPKLLIYRNNQRPSGVPDRFSGSKSGTSASLAISGLRSEDEADYYCASWNDGLSASGWVFGGGTKLTV
# B13: XGv288 (antibody, V domains shown)
# VH: B2 VH with S30T, S31N, P45L, G54S, D55G, Q62H, L70M, S84I, E89D, V117I
# VL: B12 VL with N26S, N31S, H32N, F33Y, K43T, N53A, S91A, N93D, A98G
# B14: XGv291 (antibody, V domains shown)
# VH: QVQLVQSGAEVKKPGASVEISCKASGYSFTKYYVHWVRQAPGQGLEWMGIVNPNGGASYAQKFQGRVTMTSDTSTTTFYMEVSGLRSDDTAVYYCARAEGSSWLGWFDPWGQGTLVTVSS
# VL: B12 VL with N26T, N31S, H32K, F33D, K43T, V59A, G65A, S91V, N93D, V102L
# B15: XGv302 (antibody, V domains shown)
# VH: EVQLVESGGGLIQPGGSLRLSCAASGITVSSNYMNWVRQAPGKGLEWVSVIYAGGTTFYADSVKGRFTISRDSSKNTLSLQMNSLRVEDTAVYYCVRNLVVYGMDVWGQGTTVTVSS
# VL: DIQLTQSPSSLSASVGDRVTITCRASQGISSDLAWYQQKPGKAPKLLIYGASTLQSGVPSRFSGSGSGAHFTLTINSLQPEDFAIYYCQQLNSEFLTFGGGTKVEIK
# B16: XGv303 (antibody, V domains shown)
# VH: B15 VH with Q13R, N35T, A53S, S73N, S79Y, V87A, V96A
# VL: B15 VL with S56G, A69T, H70D, N76S, S77R, F83C
# B17: XGv304 (antibody, V domains shown)
# VH: B15 VH with A23E, G26E, N35R, V50L, T56S, S73N, S79Y, V96A, N98D, V100M
# VL: B15 VL with D32Y, K45N, A69T, H70D, N76S, I85T, Q90H, E94D, F95P
# B18: XGv296 (antibody, V domains shown)
# VH: QVQLVQSGAEVKKPGASVKISCKASGYTFTDHYVHWVRQAPGQGLEWMAIVNPSDGSTSYAQKFQGRVTMTSDTSTTTIYMELSSLRSGDTAVYYCARAEGSSWLGWFDPWGQGTQVTVSS
# VL: QSVLTQPPSASGTPGQRVTISCSGSSSNIGGHYVYWYQQFPGTAPKLLIYRSNQRPSGVPDRFSGSKSGTSASLAISGLRSEDEADYFCAAWDDGLRGSGWVFGGGTTLTV
# B19: XGv402 (antibody, V domains shown)
# VH: QVQLVESGGGVVQPGRSLRLSCAASGFTFNNYAMHWVRQAPGKGLEWVAVISYDGSNEFYLDSVKGRFAISRDNSKNTLYLQTNSLRGEDTAVYYCARESRRGADYWGQGTLVTVSS
# VL: DIQMTQSPSSLSASVGDRVTITCRASQIISNYLNWYQQKPGKAPKLLIYAASSLQSGVPSRFSGSGSGTDFTLTISSLQPEDSATYYCQQSFSPLWTFGPGTKVEIK
# B20: XGv265 (antibody, V domains shown)
# VH: QITLKESGPTLVKPTQTLTLTCNFSGFSLNTYGVGVGWIRQPPGKALEWLALIYWDGDERYGPFFKNKVTIAKDTSKNQVVLTMTNMDPVDTATYYCARHLIPTIFDYWGQGTLVTVSS
# VL: QSALTQPASVSGSPGQSITISCTGTSSDVGGSNYVSWYQHHPDRAPKLLIYEVTNRPSGVSNRFSGSKSANTASLTISGLQAEDEADYYCSSYTTTSTHILFGGGTKLTV
# B21: XGv347 (antibody, V domains shown)
# VH: QMQLVQSGPEVKKPGTSVKVSCKASGFTFTDVSSLQWVRQARGQRLEWIGWTVVGTGNTNYAPRFQERVTITTDKSTSTAYMELSSLRSEDTAVYYCAAPFCSETSCSDGFDLWGQGTKVTVSS
# VL: EIVLTQSPGTLSLSPGDRATLSCRASQSVRISYLAWYQQKPGQAPRLLISGSSSRATGIPDRFSASGSGTDFALTISRLEPEDFAVYYCQQYDNSPWTFGQGTKVEVK
# Molecular target: SARS-CoV-2 wild-type spike (S) protein (SARS-CoV-2, WT (MN908947), UniProt P0DTC2)
# Assay: not given
# Details: not given
row,Binder,binding result
1,B1,binds
2,B2,binds
3,B3,binds
4,B4,binds
5,B5,binds
6,B6,binds
7,B7,binds
8,B8,binds
9,B9,binds
10,B10,binds
11,B11,binds
12,B12,binds
13,B13,binds
14,B14,binds
15,B15,binds
16,B16,binds
17,B17,binds
18,B18,binds
19,B19,binds

# Molecular target: T1, SARS-CoV-2 wild-type spike receptor-binding domain (SARS-CoV-2, WT (MN908947), UniProt P0DTC2)
# Assay: not given
# Details: not given
row,Binder,binding result
1,B1,binds
2,B2,binds
3,B3,binds
4,B4,binds
5,B5,binds
6,B6,binds
7,B7,binds
8,B8,binds
9,B9,binds
10,B10,binds
11,B11,binds
12,B12,binds
13,B13,binds
14,B14,binds
15,B15,binds
16,B16,binds
17,B17,binds
18,B18,binds
19,B19,binds

# Molecular target: T1, SARS-CoV-2 wild-type spike …
# Assay: BLI
# Details: both partners purified
row,Binder,Kd [nM]
1,B20,0.59
2,B21,0.0814

# Molecular target: SARS-CoV-2 wild-type spike N-terminal domain (SARS-CoV-2, WT (MN908947), UniProt P0DTC2)
# Assay: ELISA
# Details: both partners purified
row,Binder,binding result
1,B21,no binding
